Experimental data published in paper PMC10791855.
Blank lines part the entries; values can stand above or below the substance they belong to.

What was measured:
Test in all cases: SEC; gel filtration on HiPrep 16/60 Sephacryl S-200 HR in 20 mM Tris-HCl, 1.5 M NaCl, 50 mM imidazole, pH 7.4; molecular mass estimated against standard proteins
[1] = molecular target: Universal stress protein USP21 from Haloferax mediterranei (Haloferax mediterranei)
[2] = molecular target: Universal stress protein USP5 from Haloferax mediterranei (Haloferax mediterranei)
[3] = molecular target: Universal stress protein USP28 from Haloferax mediterranei (Haloferax mediterranei)

stoichiometry N [1]: 2
Substance: Universal stress protein USP21 from Haloferax mediterranei (natural protein)

stoichiometry N [2]: 2
Substance: Universal stress protein USP5 from Haloferax mediterranei (natural protein)

stoichiometry N [3]: 2
Substance: Universal stress protein USP28 from Haloferax mediterranei (natural protein)
